In the supplement of paper PMC5998384:

How the values were obtained:
HeLa Kyoto [1] = experiment: thermal stability score vs G1/S (z-score of summed log2 fold changes over temperatures); higher = more thermally stable than in G1/S
HeLa Kyoto [2] = experiment: solubility change mitosis vs G1/S (difference of NP-40 vs SDS log2 ratios) (log2 ratio difference); higher = more soluble in mitosis
HeLa Kyoto [3] = experiment: melting temperature (median over replicates), in situ; higher = more thermally stable
HeLa Kyoto [4] = experiment: solubility in G1/S (NP-40 vs SDS abundance) (log2 ratio); higher = more soluble; settings: cell cycle stage: G1/S
[5] = cell cycle stage: early G1 (4.5 h after nocodazole release)
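Wherever melting temperature (median over replicates), in situ is given: HeLa Kyoto cells synchronized by double thymidine or nocodazole block, proteins quantified by TMT10plex mass spectrometry, three independent biological replicates.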
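Wherever solubility change mitosis vs G1/S (difference of NP-40 vs SDS log2 ratios) is given: synchronized HeLa Kyoto cells (double thymidine block for G1/S, nocodazole release for mitosis), protein amounts in NP-40 versus SDS lysates quantified by mass spectrometry, three biological replicates.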
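Wherever solubility in G1/S (NP-40 vs SDS abundance) is given: HeLa Kyoto cells arrested at G1/S by double thymidine block, proteins quantified by TMT10plex mass spectrometry in mild NP-40 versus SDS extracts, three biological replicates.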
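Wherever thermal stability score vs G1/S (z-score of summed log2 fold changes over temperatures) is given: synchronized HeLa Kyoto cells, proteins quantified by TMT10plex mass spectrometry, three biological replicates, mitosis taken 0.5 h after nocodazole release, G1/S directly after double thymidine block.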

| Sequence | thermal stability score (HeLa Kyoto [1]; [5]) | thermal stability score (HeLa Kyoto [1]; cell cycle stage: mitosis) | solubility change mitosis (log2) (HeLa Kyoto [2]) | melting temperature (HeLa Kyoto [3]; cell cycle stage: G1/S) [°C] | melting temperature (HeLa Kyoto [3]; cell cycle stage: mitosis) [°C] | solubility in G1/S (log2) (HeLa Kyoto [4]) |
| --- | --- | --- | --- | --- | --- | --- |
| MENAHTKTVEEVLGHFGVNESTGLSLEQVKKLKERWGSNELPAEEGKTLLELVIEQFEDLLVRILLLAACISFVLAWFEEGEETITAFVEPFVILLILVANAIVGVWQERNAENAIEALKEYEPEMGKVYRQDRKSVQRIKAKDIVPGDIVEIAVGDKVPADIRLTSIKSTTLRVDQSILTGESVSVIKHTDPVPDPRAVNQDKKNMLFSGTNIAAGKAMGVVVATGVNTEIGKIRDEMVATEQERTPLQQKLDEFGEQLSKVISLICIAVWIINIGHFNDPVHGGSWIRGAIYYFKIAVALAVAAIPEGLPAVITTCLALGTRRMAKKNAIVRSLPSVETLGCTSVICSDKTGTLTTNQMSVCRMFILDRVEGDTCSLNEFTITGSTYAPIGEVHKDDKPVNCHQYDGLVELATICALCNDSALDYNEAKGVYEKVGEATETALTCLVEKMNVFDTELKGLSKIERANACNSVIKQLMKKEFTLEFSRDRKSMSVYCTPNKPSRTSMSKMFVKGAPEGVIDRCTHIRVGSTKVPMTSGVKQKIMSVIREWGSGSDTLRCLALATHDNPLRREEMHLEDSANFIKYETNLTFVGCVGMLDPPRIEVASSVKLCRQAGIRVIMITGDNKGTAVAICRRIGIFGQDEDVTSKAFTGREFDELNPSAQRDACLNARCFARVEPSHKSKIVEFLQSFDEITAMTGDGVNDAPALKKAEIGIAMGSGTAVAKTASEMVLADDNFSTIVAAVEEGRAIYNNMKQFIRYLISSNVGEVVCIFLTAALGFPEALIPVQLLWVNLVTDGLPATALGFNPPDLDIMNKPPRNPKEPLISGWLFFRYLAIGCYVGAATVGAAAWWFIAADGGPRVSFYQLSHFLQCKEDNPDFEGVDCAIFESPYPMTMALSVLVTIEMCNALNSLSENQSLLRMPPWENIWLVGSICLSMSLHFLILYVEPLPLIFQITPLNVTQWLMVLKISLPVILMDETLKFVARNYLEPGKECVQPATKSCSFSACTDGISWPFVLLIMPLVIWVYSTDTNFSDMFWS [ATP2A2] | 3.11 | 3.97 | -0.116 | 51.8 | 51.8 | -0.104 |
| MENKSLESSQTDLKLVAHPRAKSKVWKYFGFDTNAEGCILQWKKIYCRICMAQIAYSGNTSNLSYHLEKNHPEEFCEFVKSNTEQMREAFATAFSKLKPESSQQPGQDALAVKAGHGYDSKKQQELTAAVLGLICEGLYPASIVDEPTFKVLLKTADPRYELPSRKYISTKAIPEKYGAVREVILKELAEATWCGISTDMWRSENQNRAYVTLAAHFLGLGAPNCLSMGSRCLKTFEVPEENTAETITRVLYEVFIEWGISAKVFGATTNYGKDIVKACSLLDVAVHMPCLGHTFNAGIQQAFQLPKLGALLSRCRKLVEYFQQSAVAMYMLYEKQKQQNVAHCMLVSNRVSWWGSTLAMLQRLKEQQFVIAGVLVEDSNNHHLMLEASEWATIEGLVELLQPFKQVAEMLSASRYPTISMVKPLLHMLLNTTLNIKETDSKELSMAKEVIAKELSKTYQETPEIDMFLNVATFLDPRYKRLPFLSAFERQQVENRVVEEAKGLLDKVKDGGYRPAEDKIFPVPEEPPVKKLMRTSTPPPASVINNMLAEIFCQTGGVEDQEEWHAQVVEELSNFKSQKVLGLNEDPLKWWSDRLALFPLLPKVLQKYWCVTATRVAPERLFGSAANVVSAKRNRLAPAHVDEQVFLYENARSGAEAEPEDQDEGEWGLDQEQVFSLGDGVSGGFFGIRDSSFL [ZBED1] | 0.506 | 0.95 | -0.112 | 49.7 | 49.6 | 0.0447 |
| MENLKHIITLGQVIHKRCEEMKYCKKQCRRLGHRVLGLIKPLEMLQDQGKRSVPSEKLTTAMNRFKAALEEANGEIEKFSNRSNICRFLTASQDKILFKDVNRKLSDVWKELSLLLQVEQRMPVSPISQGASWAQEDQQDADEDRRAFQMLRRDNEKIEASLRRLEINMKEIKETLRQYLPPKCMQEIPQEQIKEIKKEQLSGSPWILLRENEVSTLYKGEYHRAPVAIKVFKKLQAGSIAIVRQTFNKEIKTMKKFESPNILRIFGICIDETVTPPQFSIVMEYCELGTLRELLDREKDLTLGKRMVLVLGAARGLYRLHHSEAPELHGKIRSSNFLVTQGYQVKLAGFELRKTQTSMSLGTTREKTDRVKSTAYLSPQELEDVFYQYDVKSEIYSFGIVLWEIATGDIPFQGCNSEKIRKLVAVKRQQEPLGEDCPSELREIIDECRAHDPSVRPSVDEILKKLSTFSK [MLKL] | -0.232 | 0.87 | -0.0647 | 49.6 | 50 | 0.126 |
| MENSTTTISREELEELQEAFNKIDIDNSGYVSDYELQDLFKEASLPLPGYKVREIVEKILSVADSNKDGKISFEEFVSLMQELKSKDISKTFRKIINKREGITAIGGTSTISSEGTQHSYSEEEKVAFVNWINKALENDPDCKHLIPMNPNDDSLFKSLADGILLCKMINLSEPDTIDERAINKKKLTPFTISENLNLALNSASAIGCTVVNIGASDLKEGKPHLVLGLLWQIIKVGLFADIEISRNEALIALLNEGEELEELMKLSPEELLLRWVNYHLTNAGWHTISNFSQDIKDSRAYFHLLNQIAPKGGEDGPAIAIDLSGINETNDLKRAGLMLQEADKLGCKQFVTPADVVSGNPKLNLAFVANLFNTYPCLHKPNNNDIDMNLLEGESKEERTFRNWMNSLGVNPYINHLYSDLADALVIFQLYEMIRVPVNWSHVNKPPYPALGGNMKKIENCNYAVELGKNKAKFSLVGIAGQDLNEGNSTLTLALVWQLMRRYTLNVLSDLGEGEKVNDEIIIKWVNQTLKSANKKTSISSFKDKSISTSLPVLDLIDAIAPNAVRQEMIRRENLSDEDKLNNAKYAISVARKIGARIYALPDDLVEVKPKMVMTVFACLMGKGLNRIK [PLS1] | 0.863 | 0.264 | -0.0585 | 52.6 | 53.7 | 0.301 |
| MENTENSVDSKSIKNLEPKIIHGSESMDSGISLDNSYKMDYPEMGLCIIINNKNFHKSTGMTSRSGTDVDAANLRETFRNLKYEVRNKNDLTREEIVELMRDVSKEDHSKRSSFVCVLLSHGEEGIIFGTNGPVDLKKITNFFRGDRCRSLTGKPKLFIIQACRGTELDCGIETDSGVDDDMACHKIPVEADFLYAYSTAPGYYSWRNSKDGSWFIQSLCAMLKQYADKLEFMHILTRVNRKVATEFESFSFDATFHAKKQIPCIVSMLTKELYFYH [CASP3] | 0.22 | -0.0196 | 0.0123 | 55.7 | 56.3 | 0.135 |
